Laboratory results published in the DeepSol protein solubility set.

assay: soluble on expression in E. coli; label from the status in PepcDB or PDB records

Soluble on expression in E. coli, not soluble:
MGSDKIHHHHHHAQTCGATYITEFQYDLKKRTNWCNLLRLDAYVPIGTKGILEFASIHVYKTRPERIINDLQTFSNIEEDNLPCAIAVLGYTRLVGNVTLFAGIRNLNEDYFTTPCMSLFTNSSCGIFPTLSANYPIANYPLAALCLDYKMTLGRFGIESSLYNGKGYNGWSKGKHPFTFNPRKDGVFSITEINYQTEYGKCFGGFSLHTNGDMPDVAGEWKTREREKKVSPKMTFAWWGYAERKLWSRVRQEVNLLVQYTRTSSVFSECRNYMGAGVTWIYVPGGQKRHEAGLFLSAAQFKSCNEVAGEVTYRYSFNRDTYIQPAIHLIKNGGGLHEVFLIRMGYILNGGRVR, MGSDKIHHHHHHATKTEQIPVNKTYAACPQNWIGVENKCFYFSEYPSNWTFAQAFCMAQEAQLARFDNQDELNFLMRYKANFDSWIGLHRESSEHPWKWTDNTEYNNTIPIRGEERFAYLNNNGISSTRIYSLRMWICSKL, MGSDKIHHHHHHCKPSKDETSSLKTADRKPLVTNLGNNVILPRYVALNTSVNAFDSEVQIFTAAPTIENLTSLRIKFYQAYIDWEYVACFEFGPAAASTVNLGTKTVNAFPADTAVIKNKIVQGVTAIPPTNSAMYSGFPAIDYLLFAKSLTAQQIVDSFTVSSTAVKRCNYLKTVSSDLKARINTTYTNWTASGANFISLYTNSTGIDLGSATSQTVNMLVADVENIKNFKLGIPLNIIQNVVVGDGSTVNPFKCEGYHSDSSLVLAKASIESLRKLYLGIGADGTDGEGFDNYLEAIDRSGLNVQIKNQIALLQAKLDAIPAPISIAIKNPAGKQAVNEAYTETLHLLVLLKVDMASAIGVMISYGDTDGD, MGSDKIHHHHHHCSTEVTEYRQQQPALDIFHYFQGRTEAWGMVQDRSGKQLRRFHVEIDGDVVGDTLTLHERFVYDDGEKQQRIWRIRRTGDNRYQGTAGDIEGVASGQAAGNAFHWRYSMNVEASGSRWLLHFDDWMFLQDGSHLFNKTEMKKFGITVATVTLFFTRTTAEERTAP, MGSDKIHHHHHHDEINKDHNHTTAVPAKMILTDVMTSTAFSVVSGDFNLYGGMYVEHETGSHNQFYYAETRSSCTSASTFNNSWGGTYSTLKDALISVKVAEEEQNFITKGIAELFVAYNLAILTDMYGDTPWKEACDYTVSMTPAIDKQEEIYKDIMAYVDAAIEDLQKPDLTSLSNQDLIYKGDASAWLKTAYGLKARYTMRLMGRSADVKGDMEKVLDYISKSYTSAAEQCSYAMYGVGVNINPFFGVFYSRLGEVASRSMFDKLNERNDPRIRRCYVEANSQTMIASKDDPLLNLAHNGDLVQSQLEYTVSMFCAAQTAPTHILSYHEVLFLKAEALCRLNRKDEAKAVLKEAVVAGMANMEVNIKSALASDYWGGFLNVTNEVTPEEAASYFDENVVPLFDANPLKETMIQKYISFWNADGESTECYNDVRRLKSLGEDIYGLQNPGKFPLRCPYGNDDTTTNPNIQAAYGDGQYVFTENVWWAGGTR, MGSDKIHHHHHHDIRPVGSVIPQTAEEYRALLARAYLNVPNDRGLACLRSDEMLVNDNEYDRNSYGDIERWNDVSPFPGTSQFTWSNFYNVLFIANQVIESQKEITEGTPEVVNQLVGEAHLLRAYLHFVLVNLHGQPYTKSGALNSKSIPLKLDTDLEKTLGRNTVEEVYTSILSDIEHARELINKEKWETVFSYRFNVLSVDALQSRVSLYMGAWPKCLESAEAVLAKKSVLVDMNETPLALPNHFESVESITALEQVMGSSVNNAVWVPATFLALYQEGDKRLAAYFAAPDENGNRKSSKGGKREFSCTFRVGELYLNAAEAAANMDKLPHARMRLLELMRKRYTPEAYDKKENAVNVMDKNALISEILNERARELAFEGHRWFDLRRTTRPRMVKVLQGKTYILEQDDPRYTIPIPRDAIAANPGLAN
